Assay results published in patent US20110166072A1.

What follows are substances tested against integrin αIIbβ3 (on CHO-αIIbβ3 cells) (UniProt P08514) (assay: cell adhesion inhibition: CHO-αIIbβ3 cells on coated fibrinogen).

Substance	IC50 [µM]
AKGDWN (from UniProt P30403 408-475) (ligand; other documents disagree on this pair)	0.069
HSA-RD (human serum albumin-RD fusion protein) (from UniProt P30403 408-475) (other; other documents disagree on this pair)	2.75
PRPDDL (from UniProt P30403 408-475) (ligand; other documents disagree on this pair)	13.6

What follows are substances tested against platelet glycoprotein αIIbβ3 (on human platelets) (human) (UniProt P08514) (assay: cell-based or functional assay).

Substance	Platelet aggregation IC50 [µM]
AKGDWN (from UniProt P30403 408-475) (ligand)	0.138
HSA-RD (human serum albumin-RD fusion protein) (from UniProt P30403 408-475)	0.438
PRGEMP (from UniProt P30403 408-475) (ligand)	4.91
PRPDDL (from UniProt P30403 408-475) (ligand)	3.53

These substances were tested against integrin αvβ3 (on rat osteoclast precursors) (rat) (assay: cell-based or functional assay).

Substance	Osteoclastogenesis IC50 [µM]
AKGDWN (from UniProt P30403 408-475) (ligand)	78.4
HSA-RD (human serum albumin-RD fusion protein) (from UniProt P30403 408-475)	0.00668
PRGEMP (from UniProt P30403 408-475) (ligand)	68.2
